Data reported in patent US20180273626A1.
pKd: −log10 of the molar value.

Assays:
[1] = biological target: FcεRIα (human) (UniProt P12319); experiment: SPR; insect derived
[2] = biological target: FcεRIα (human) (UniProt P12319); experiment: SPR; mammalian derived

IgE-Fc3-4, sequence (P01854 209-426): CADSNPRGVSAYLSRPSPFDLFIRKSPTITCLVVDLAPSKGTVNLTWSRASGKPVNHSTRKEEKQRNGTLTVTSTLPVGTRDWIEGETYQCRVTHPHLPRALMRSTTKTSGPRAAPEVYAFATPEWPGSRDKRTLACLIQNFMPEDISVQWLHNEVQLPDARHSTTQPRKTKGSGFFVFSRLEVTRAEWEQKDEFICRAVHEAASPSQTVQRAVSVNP
FcεRIα (human), sequence (P12319 26-201): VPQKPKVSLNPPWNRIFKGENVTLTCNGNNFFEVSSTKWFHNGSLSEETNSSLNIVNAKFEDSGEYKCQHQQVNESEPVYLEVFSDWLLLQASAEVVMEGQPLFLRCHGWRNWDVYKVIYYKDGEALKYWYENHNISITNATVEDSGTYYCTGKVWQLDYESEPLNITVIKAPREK

- pKd [1]: 9.18
- pKd [2]: 9.03
Substance: IgE-Fc3-4 (from UniProt P01854 209-426)
